Here are results for 6 molecules from patent US20220242962A1 (APTEVO RESEARCH AND DEVELOPMENT, published 2022).

Positions count from the first letter of the chain named. Names and notes keep the numbering of the source.

T1: Full-length Human OX40 (human, UniProt P43489 29-277)
T1 sequence: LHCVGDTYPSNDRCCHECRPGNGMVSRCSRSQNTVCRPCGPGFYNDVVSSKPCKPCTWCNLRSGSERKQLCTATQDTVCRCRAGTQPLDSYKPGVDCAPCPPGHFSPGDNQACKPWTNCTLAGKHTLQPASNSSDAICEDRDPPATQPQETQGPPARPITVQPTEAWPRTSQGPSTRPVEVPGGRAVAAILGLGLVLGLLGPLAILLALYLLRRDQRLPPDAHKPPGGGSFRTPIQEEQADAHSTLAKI

T2: Human OX40 ECD-AFH (human)
T2 construct: ECD'; entry includes the C-terminal tags; also called OXF003; Human OX40 ECD-avi-flag-his
T2 chain: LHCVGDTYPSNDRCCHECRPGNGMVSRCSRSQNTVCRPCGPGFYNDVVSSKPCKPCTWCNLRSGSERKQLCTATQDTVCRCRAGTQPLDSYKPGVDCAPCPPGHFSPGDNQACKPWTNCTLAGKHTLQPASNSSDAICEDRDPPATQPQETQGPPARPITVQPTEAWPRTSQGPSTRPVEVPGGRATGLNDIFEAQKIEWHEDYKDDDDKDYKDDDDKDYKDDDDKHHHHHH

T3: Full-length Cyno 4-1BB (cynomolgus monkey, UniProt Q07011 24-255 (human entry))
T3 construct: on Jurkat or CHO cells; also called FOB006; cynomolgus 4-1BB
T3 chain: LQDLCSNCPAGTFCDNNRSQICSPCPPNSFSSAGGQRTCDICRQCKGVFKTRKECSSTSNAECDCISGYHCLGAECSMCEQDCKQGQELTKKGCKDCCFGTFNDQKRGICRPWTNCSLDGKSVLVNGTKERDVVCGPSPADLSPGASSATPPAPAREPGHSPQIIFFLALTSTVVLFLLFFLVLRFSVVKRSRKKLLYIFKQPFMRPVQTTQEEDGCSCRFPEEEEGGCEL

T4: Full-length Cyno OX40 (cynomolgus monkey, UniProt P43489 29-277 (human entry))
T4 construct: on CHO-K1SV cells; also called OXF004; cynomolgus OX40
T4 chain: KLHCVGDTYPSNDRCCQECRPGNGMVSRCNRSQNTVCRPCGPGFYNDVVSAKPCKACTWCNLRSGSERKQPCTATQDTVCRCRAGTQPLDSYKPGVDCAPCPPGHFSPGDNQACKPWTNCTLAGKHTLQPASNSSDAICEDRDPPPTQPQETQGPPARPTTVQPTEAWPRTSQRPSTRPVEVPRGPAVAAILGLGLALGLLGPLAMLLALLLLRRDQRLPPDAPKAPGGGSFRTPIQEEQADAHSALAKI

B1: FXX01104 (bispecific antibody)
chain: EIVMTQSPATLSLSPGERATLSCRASQSVSSYLNWYQQKPGQAPRLLIYYASRRHTGIPARFSGSGSGTDFTLTISSLQPEDFAVYYCQQGYNLPYTFGQGTKVEIKGGGGSGGGGSGGGGSGGGGSEVQLVQSGAEVKKPGASVKVSCKASGYTFTSYWMNWVRQAPGQGLEWMGNIYPSGGSTNYAQKFQGRVTMTVDTSTSTVYMELSSLRSEDTAVYYCASFSDGYYAYAMDYWGQGTLVTVEPKSSDKTHTCPPCPAPPAAAPSVFLFPPKPKDTLMISRTPEVTCVVVDVSHEDPEVKFNWYVDGVEVHNAKTKPREEQYNSTYRVVSVLTVLHQDWLNGKEYKCAVSNKALPAPIEKTISKAKGQPREPQVYTLPPSRDELTKNQVSLTCLVKGFYPSDIAVEWESNGQPENNYKTTPPVLDSDGSFFLYSKLTVDKSRWQQGNVFSCSVMHEALHNHYTQKSLSLSPGGGGSPSSYVLTQPPSVSVAPGQTARITCGGNNIGSKSVNWFQQKPGQAPVLVVYDDSGRPSGIPERFSGSTSGNTATLTISRVEAGDEADYYCQVWDSSSDHVVFGGGTKLTVLGGGGSGGGGSGGGGSGGGGSQVQLVESGGGVVQPGRSLRLSCAASGFTLSYYGMHWVRQAPGKGLEWVAAISHDGSDKYYADSVKGRFTISRDNSKNTLYLQMNSLRAEDTAVYYCSNDQFDPWGQGTLVTVSSR
notes: ADAPTIR anti-4-1BB (LH) x anti-OX40; also called FX01104
B2: FXX01107 (bispecific antibody)
chain: B1 chain with T688R
notes: ADAPTIR anti-4-1BB (LH) x anti-OX40 with T86R; also called FX01107
B3: FXX01105 (bispecific antibody)
chain: B1 chain with Q498K
notes: ADAPTIR anti-4-1BB (LH) x anti-OX40 with Q17K; also called FX01105
B4: FXX01108 (bispecific antibody)
chain: B1 chain with Q498K, T688R
notes: ADAPTIR anti-4-1BB (LH) x anti-OX40 with Q17K and T86R
B5: K322A Fc (other)
chain: EPKSSDKTHTCPPCPAPEAAGAPSVFLFPPKPKDTLMISRTPEVTCVVVDVSHEDPEVKFNWYVDGVEVHNAKTKPREEQYNSTYRVVSVLTVLHQDWLNGKEYKCAVSNKALPAPIEKTISKAKGQPREPQVYTLPPSRDELTKNQVSLTCLVKGFYPSDIAVEWESNGQPENNYKTTPPVLDSDGSFFLYSKLTVDKSRWQQGNVFSCSVMHEALHNHYTQKSLSLSPG
notes: IgG1 Fc with L234A, L235A, G237A, K322A (EU); the listing labels the entry 'K332A'
B6: Null2 Fc (other, human, UniProt P01857-1 99-329, looked up, name in EU numbering)
chain: B5 chain with S5C, E103A, K105A
notes: domain: Fc region

For one experiment, the target named is T1, Full-length Human OX40. The experiment is described as follows: cell-based or functional assay.
As for B1, the “OX40 Reporter Assay EC50” value came to 0.013 nM and the “OX40 Reporter Assay Max induction” value came out at 1.99e+06.

On to B2, for which the “OX40 Reporter Assay EC50” value was determined as 0.013 nM and the “OX40 Reporter Assay Max induction” value was 2.14e+06.

B3: the “OX40 Reporter Assay EC50” value turned out to be 0.01 nM and the “OX40 Reporter Assay Max induction” value worked out at 1.97e+06.

With B4, the “OX40 Reporter Assay EC50” value was 0.013 nM and the “OX40 Reporter Assay Max induction” value came to 2.07e+06.

The target of another experiment is T5, Full-length Human 4-1BB (human, UniProt Q07011 24-255). In words: cell-based or functional assay.
As for B1, the “4-1BB Reporter Assay EC50” value amounted to 0.011 nM and the “4-1BB Reporter Assay Max induction” value came to 6.11e+06.

As for B2, the “4-1BB Reporter Assay EC50” value was 0.016 nM and the “4-1BB Reporter Assay Max induction” value was 6.85e+06.

Take B3: the “4-1BB Reporter Assay EC50” value worked out at 0.014 nM and the “4-1BB Reporter Assay Max induction” value turned out to be 6.58e+06.

With B4, the “4-1BB Reporter Assay EC50” value was determined as 0.013 nM and the “4-1BB Reporter Assay Max induction” value worked out at 6.61e+06.

The next experiment has as its target T1, Full-length Human OX40. In words: flow cytometry, CHO cells expressing human OX40. On the procedure:
(§1) FIGS. 12A-12D show the binding of anti-4-1BB x anti-OX40 constructs, with additional humanization in 4-1BB and altered orientations of binding domains, human (12A) or cynomolgus (12C) 4-1BB-expressing Jurkat cells or human (12B) or cynomolgus (12D) OX40-expressing CHOK1SV cells. Serial dilutions of ADAPTIR™ constructs were incubated with transfected cells and subsequently labelled with a fluorescently-conjugated goat-a-human Fc secondary antibody. […] (See Example 19.)
(§2) Binding studies were performed using the flow cytometry-based staining procedures described above.
In general terms: A flow cytometer gives signals particle by particle.
Turning to B1, the EC50 stood at 0.32 nM and the “max MFI” value worked out at 10400 MFI.

Regarding B2, the EC50 stood at 0.29 nM and the “max MFI” value is 10300 MFI.

For the molecule B3, the EC50 is 0.35 nM and the “max MFI” value was determined as 10500 MFI.

Consider B4, for which the EC50 was determined as 0.32 nM and the “max MFI” value is 10300 MFI.

Another experiment deals with T2, Human OX40 ECD-AFH. The experiment is described as follows: SPR, construct captured, monomeric ECD as analyte. The method, then:
(§3) Mouse anti-human IgG (GE, BR-1008-39) at 25 μg/ml in 10 mM sodium acetate pH 5.0 was immobilized at a density of ˜10,000 response units (RU) onto each flow cell of a CM5 research-grade sensor chip (GE) by standard amine coupling chemistry. Each binding protein at approximately 100 nM in HBS-EP+ with 0.2% BSA buffer was captured in a flow cell with the immobilized anti-human IgG at a flow rate of 10 μL/min for 20 seconds, leaving one flow cell surface unmodified as the reference. Using a single-cycle kinetics mode, five different concentrations of ECD were sequentially injected through each flow cell at 30 μL/min for 300 seconds followed by a 600 second dissociation period. Regeneration was achieved by injection of 3 M MgCl₂ at a flow rate of 30 μL/min for 30 seconds followed by HBS-EP+ with 0.2% BSA buffer stabilization for 1 min.
(§4) Sensorgrams obtained from kinetic SPR measurements were analyzed by the double subtraction method. The signal from the reference flow cell was subtracted from the analyte binding response obtained from flow cells with immobilized or captured ligands. Buffer reference responses were then averaged from multiple injections. The averaged buffer reference responses were then subtracted from analyte binding responses, and the final double-referenced data were analyzed with Biacore T200 Evaluation software (2.0, GE), globally fitting data to derive kinetic parameters. All sensorgrams were fitted using a simple one-to-one binding model.
(§5) Protein was produced by transient expression, purified by ProA chromatography and prep SEC.
(SPR reads the build-up and loss of mass on a sensor chip optically.)
Consider B1, for which the affinity, expressed as Kd, was 0.5 nM; the koff was found to be 0.00032 s⁻¹; the kon turned out to be 710000 M⁻¹ s⁻¹.

B2 displayed a Kd of 0.5 nM, a koff of 0.00029 s⁻¹ and a kon of 630000 M⁻¹ s⁻¹.

The molecule B3 displayed a Kd of 0.4 nM, a koff of 0.00027 s⁻¹ and a kon of 710000 M⁻¹ s⁻¹.

For B4, the Kd is 0.8 nM, the koff came out at 0.00039 s⁻¹ and the kon was 480000 M⁻¹ s⁻¹.

The target of a further experiment is T6, Human 4-1BB ECD-AFH (human).
T6 construct: entry includes the tags; also called FOB003; HUMAN CD137 ECD-AVI-FLAG-HIS
T6 sequence (chain, as listed by the source limits assumed): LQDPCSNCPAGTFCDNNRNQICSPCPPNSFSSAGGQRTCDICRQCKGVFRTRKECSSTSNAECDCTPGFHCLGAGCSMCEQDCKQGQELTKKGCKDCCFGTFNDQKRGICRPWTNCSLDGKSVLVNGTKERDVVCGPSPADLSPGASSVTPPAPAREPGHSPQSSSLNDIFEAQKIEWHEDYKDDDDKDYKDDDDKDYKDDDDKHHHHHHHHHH
The experiment is described as follows: SPR, construct captured, monomeric ECD as analyte. On the procedure: as §3, §4, §5
Regarding B1, the affinity, expressed as Kd, was 17 nM; the koff is 0.0055 s⁻¹; the kon is 320000 M⁻¹ s⁻¹.

Molecule B2 showed a Kd of 18 nM, a koff of 0.0056 s⁻¹ and a kon of 310000 M⁻¹ s⁻¹.

In turn, B3 registered a Kd of 19 nM, a koff of 0.0055 s⁻¹ and a kon of 290000 M⁻¹ s⁻¹.

B4 showed a Kd of 18 nM, a koff of 0.0055 s⁻¹ and a kon of 310000 M⁻¹ s⁻¹.

The next experiment deals with T5, Full-length Human 4-1BB. In words: flow cytometry, Jurkat cells expressing human 4-1BB. On the procedure: as §1, §2
For the molecule B1, the EC50 worked out at 0.31 nM and the “max MFI” value is 4860 MFI.

Take B2: the midpoint of the response, the EC50, lay at 0.26 nM and the “max MFI” value is 4700 MFI.

In the case of B3, it took 0.33 nM to reach a half-maximal effect (EC50) and the “max MFI” value was 4940 MFI.

For B4, the EC50 amounted to 0.29 nM and the “max MFI” value was 4770 MFI.

In the next experiment the target is T7, Recombinant FcRn/b2M protein (human, UniProt P55899 24-297; P61769 21-119, limits assumed).
T7 construct: also called hFcRn/b2M; neonatal Fc receptor
T7 sequence (P55899 24-297 limits assumed, chain 1 of 2): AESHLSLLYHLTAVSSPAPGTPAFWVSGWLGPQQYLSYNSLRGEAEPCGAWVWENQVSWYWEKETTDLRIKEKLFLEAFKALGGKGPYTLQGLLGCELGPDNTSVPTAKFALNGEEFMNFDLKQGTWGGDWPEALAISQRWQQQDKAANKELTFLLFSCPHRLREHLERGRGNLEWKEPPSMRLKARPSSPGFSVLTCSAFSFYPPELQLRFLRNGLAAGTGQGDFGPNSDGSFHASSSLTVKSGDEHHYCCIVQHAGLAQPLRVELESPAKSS
T7 sequence (P61769 21-119 limits assumed, chain 2 of 2): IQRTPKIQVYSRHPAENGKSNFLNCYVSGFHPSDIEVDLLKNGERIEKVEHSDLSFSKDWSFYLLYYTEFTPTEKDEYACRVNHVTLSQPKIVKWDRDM
The experiment is described as follows: SPR pH 6.0, FcRn/b2M immobilized, two-state reaction model. On the procedure:
Recombinant FcRn/b2M protein was generated via transient transfection of HEK-293 cells with a bi-cistronic vector containing the genes for both FcRn and […]. The complex was purified using IMAC chromatography and subsequently buffer exchanged into IMAC elution buffer after verifying purity of the IMAC eluate by analytical SEC. hFcRn/b2M at 10 μg/ml in 10 mM sodium acetate (pH 4.5) was immobilized on a CM5 chip by direct amine coupling chemistry to a level of ˜600 RU. A reference flow cell was left blank.
Different concentrations of the Fc variant protein (5-80 nM by 2-fold dilutions in pH 6.0 running buffer) including running buffer as blank were injected in randomized order at 30 μL/min for 180 seconds followed by a 120 second dissociation period.
Sensorgrams obtained from kinetic SPR measurements were analyzed by the double subtraction method. The signal from the reference flow cell was subtracted from the analyte binding response obtained from flow cell with immobilized ligands. Buffer reference was subtracted from analyte binding responses, and the final double-referenced data were analyzed with Biacore T200 Evaluation software (2.0, GE), globally fitting data to derive kinetic parameters. All sensorgrams were fitted using two-state reaction model, as described in Weirong Wang et al, DrugMetab Dispos.: 39(9): 1469-77 (2011).
For B5, the Kd is 22 nM.

On to B6, for which the Kd is 33 nM.

The target in another experiment is T3, Full-length Cyno 4-1BB. The experiment is described as follows: flow cytometry on Jurkat cells transfected with cynomolgus 4-1BB, goat anti-human Fc secondary antibody, MFI (Mean). The method, then:
as §1, §2
Regarding B1, the “EC50 (read off the curve)” value was around 0.3 nM.

Turning to B2, the “EC50 (read off the curve)” value was around 0.3 nM.

As for B3, the half-maximal effective concentration (EC50 (read off the curve)) is around 0.3 nM.

B4: the “EC50 (read off the curve)” value was around 0.3 nM.

In the next experiment the target is T4, Full-length Cyno OX40. In words: flow cytometry on CHOK1SV cells transfected with cynomolgus OX40, goat anti-human Fc secondary antibody, MFI (Mean). On the procedure:
as §1, §2
B1: the “EC50 (read off the curve)” value was around 0.8 nM.

With B2, the “EC50 (read off the curve)” value was around 0.8 nM.

Take B3: the “EC50 (read off the curve)” value is around 0.8 nM.

Turning to B4, the concentration giving a half-maximal response (EC50 (read off the curve)) was around 0.8 nM.

For orientation: EC50 means the concentration giving half of the maximal effect. A higher EC50 goes with lower potency in that assay. One may read the Kd as the equilibrium constant for the complex coming apart. For orientation: koff means the rate constant with which the complex falls apart. Lower therefore signals slow dissociation. As usually defined, the kon is the second-order rate constant of association. The term EC50 (read off the curve) denotes the concentration that produces a half-maximal response. A higher EC50 (read off the curve) goes with weaker potency.
